Measurements taken from US20100330078A1 (Pfizer, published 2010).

Columns and labels:
[1] = molecular target: T1, Murine FcγRIII (murine, UniProt P08508 31-215, limits assumed); assay: Biacore, KD against 22B5 wild type IgG1
T1 construct: Construct not described; also called mFcγRIII
T1 sequence (looked up): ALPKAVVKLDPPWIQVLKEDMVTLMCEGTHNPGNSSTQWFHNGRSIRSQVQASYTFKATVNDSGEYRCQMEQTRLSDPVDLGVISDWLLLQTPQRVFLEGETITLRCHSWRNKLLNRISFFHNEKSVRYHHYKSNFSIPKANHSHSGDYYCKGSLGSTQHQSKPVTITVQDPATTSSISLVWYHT
Method: (§1) The ability of 22B5/DLE, which contains the IgG1 DLE triple mutations (as discussed previously in Example 2), to enhance binding to the FcγRs was evaluated in a Biacore binding experiment. The FcγR binding affinities of 22B5/DLE were compared with the binding affinity of wild type (wt) IgG1. […] The binding affinity comparison of 22B5/DLE and wild type IgG1 was also evaluated against the murine Fcγ receptors. The greatest enhancement in binding was to the mFcγRIV, followed by mFcγRI, and mFcγRIII (see FIG. 5).

[2] = molecular target: T2, Murine FcγRIV (murine, UniProt A0A0B4J1G0 21-203); assay: Biacore, KD against 22B5 wild type IgG1
T2 construct: Construct not described; also called mFcγRIV
T2 sequence: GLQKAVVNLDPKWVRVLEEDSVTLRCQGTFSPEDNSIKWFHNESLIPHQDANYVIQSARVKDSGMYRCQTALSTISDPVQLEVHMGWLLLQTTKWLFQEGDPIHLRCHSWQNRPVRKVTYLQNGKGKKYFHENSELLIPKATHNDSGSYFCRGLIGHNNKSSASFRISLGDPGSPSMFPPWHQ
Method: as §1

[3] = molecular target: T3, Human FcγRI (human, UniProt P12314 16-288, limits assumed); assay: Biacore, KD against 22B5 wild type IgG1
T3 construct: Construct used in Biacore is not described
Method: as §1

[4] = molecular target: T4, Human FcγRIIa/131H (human, UniProt P12318 36-218, limits assumed); assay: Biacore, KD against 22B5 wild type IgG1
T4 construct: Polymorphic variant 131H; construct not described
T4 sequence (looked up): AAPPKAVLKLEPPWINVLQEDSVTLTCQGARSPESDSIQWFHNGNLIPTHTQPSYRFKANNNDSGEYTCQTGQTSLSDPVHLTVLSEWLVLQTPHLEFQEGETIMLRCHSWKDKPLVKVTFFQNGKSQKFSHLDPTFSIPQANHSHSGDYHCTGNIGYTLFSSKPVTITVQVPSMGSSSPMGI
Method: as §1

[5] = molecular target: T5, Human FcγRIIa/131R (human, UniProt P12318 36-218, limits assumed); assay: Biacore, KD against 22B5 wild type IgG1
T5 construct: Polymorphic variant 131R; construct not described
T5 sequence (looked up): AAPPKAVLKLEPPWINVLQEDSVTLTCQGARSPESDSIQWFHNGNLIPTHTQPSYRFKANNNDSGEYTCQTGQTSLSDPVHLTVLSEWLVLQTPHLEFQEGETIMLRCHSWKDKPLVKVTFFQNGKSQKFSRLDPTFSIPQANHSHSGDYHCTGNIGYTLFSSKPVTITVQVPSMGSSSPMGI
Method: as §1

[6] = molecular target: T6, Human FcγRIIIa/158F (human, UniProt P08637 17-208, limits assumed); assay: Biacore, KD against 22B5 wild type IgG1
T6 construct: also called Human FcγRIII/158F
Method: as §1

[7] = molecular target: T7, Human FcγRIIIa/158V (human, UniProt P08637 17-208, limits assumed); assay: Biacore, KD against 22B5 wild type IgG1
T7 construct: also called Human FcγRIII/158V
Method: as §1

[8] = molecular target: T8, Murine FcγRI (murine, UniProt P26151 25-297, limits assumed); assay: Biacore, KD against 22B5 wild type IgG1
T8 construct: Construct not described; also called mFcγRI
T8 sequence (looked up): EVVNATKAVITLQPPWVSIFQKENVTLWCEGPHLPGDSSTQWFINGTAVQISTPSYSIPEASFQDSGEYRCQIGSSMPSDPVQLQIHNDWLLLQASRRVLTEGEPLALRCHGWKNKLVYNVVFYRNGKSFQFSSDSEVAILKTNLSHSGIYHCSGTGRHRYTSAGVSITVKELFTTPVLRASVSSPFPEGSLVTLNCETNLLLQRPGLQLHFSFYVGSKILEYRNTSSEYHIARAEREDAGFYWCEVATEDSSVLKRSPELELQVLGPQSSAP
Method: as §1

[9] = molecular target: T9, human recombinant α5β1 extracellular domain (human, UniProt P08648 42-995; P05556 21-728); assay: Biacore, antibody immobilised, α5β1 extracellular domain flowed, 25.0 C, 4.0 mM CaCl2
T9 construct: extracellular domain; also called α5β1 recombinant extracellular domain; extracellular domain of α5β1
Method: (§2) Binding kinetics and nominal avidity of 22B5/DLE to the extracellular domain of α5β1 was determined using Biacore analysis (Biacore AB, Uppsala, Sweden). To perform BIAcore kinetic analyses, the 22B5/DLE antibody was immobilized on a biosensor chip and various concentrations of human recombinant α5β1 extracellular domain were flowed across the surface at 25.0° C. (see FIG. 3). The binding data were fit globally to a simple one-to-one binding model with drifting baseline. 22B5/DLE binds reversibly to α5β1. […] The KD was greater when measured in the absence of divalent cations, consistent with cation-dependent activation of integrin.

[10] = molecular target: T9, human recombinant α5β1 extracellular …; assay: Biacore, antibody immobilised, α5β1 extracellular domain flowed, 25.0 C, 4.0 mM MgCl2
Method: as §2

[11] = molecular target: T10, human integrin α5β1 on cells (endogenous, HUVEC; tumor or endothelial-expressed) (human, UniProt P08648 42-1049; P05556 21-798); assay: FACS on HUVEC (endogenous human α5β1), GeoMean against mAb concentration, fitted; experiment 030207
T10 construct: whole, on cells; also called cell surface integrin α5; endogenous α5β1
T10 sequence (P08648 42-1049, chain 1 of 2): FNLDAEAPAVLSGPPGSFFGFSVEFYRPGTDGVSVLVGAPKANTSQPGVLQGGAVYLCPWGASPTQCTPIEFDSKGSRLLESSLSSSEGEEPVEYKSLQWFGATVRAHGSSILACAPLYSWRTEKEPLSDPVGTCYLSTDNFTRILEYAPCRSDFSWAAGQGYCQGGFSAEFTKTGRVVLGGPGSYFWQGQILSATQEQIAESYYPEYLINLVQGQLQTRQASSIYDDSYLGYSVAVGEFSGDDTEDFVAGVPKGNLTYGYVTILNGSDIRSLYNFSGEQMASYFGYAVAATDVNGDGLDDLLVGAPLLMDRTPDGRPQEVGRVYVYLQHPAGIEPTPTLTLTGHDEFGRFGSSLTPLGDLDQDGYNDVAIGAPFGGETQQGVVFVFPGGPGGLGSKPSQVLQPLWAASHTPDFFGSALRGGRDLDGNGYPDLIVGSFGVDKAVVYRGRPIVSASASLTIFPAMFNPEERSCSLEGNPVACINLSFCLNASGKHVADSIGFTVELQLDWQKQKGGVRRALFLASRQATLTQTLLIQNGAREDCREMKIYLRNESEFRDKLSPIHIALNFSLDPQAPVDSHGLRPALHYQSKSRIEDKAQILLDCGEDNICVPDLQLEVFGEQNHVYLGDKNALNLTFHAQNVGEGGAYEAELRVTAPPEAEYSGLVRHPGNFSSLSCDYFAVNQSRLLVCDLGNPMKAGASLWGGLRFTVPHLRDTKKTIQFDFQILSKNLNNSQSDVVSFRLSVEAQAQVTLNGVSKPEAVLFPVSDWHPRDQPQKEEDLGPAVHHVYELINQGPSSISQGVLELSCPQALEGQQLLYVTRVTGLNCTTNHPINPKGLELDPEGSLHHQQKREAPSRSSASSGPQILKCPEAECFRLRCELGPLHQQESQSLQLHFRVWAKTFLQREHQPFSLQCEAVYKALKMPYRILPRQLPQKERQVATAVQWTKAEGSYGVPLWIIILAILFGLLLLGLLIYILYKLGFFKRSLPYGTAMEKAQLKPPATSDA
T10 sequence (P05556 21-798, chain 2 of 2): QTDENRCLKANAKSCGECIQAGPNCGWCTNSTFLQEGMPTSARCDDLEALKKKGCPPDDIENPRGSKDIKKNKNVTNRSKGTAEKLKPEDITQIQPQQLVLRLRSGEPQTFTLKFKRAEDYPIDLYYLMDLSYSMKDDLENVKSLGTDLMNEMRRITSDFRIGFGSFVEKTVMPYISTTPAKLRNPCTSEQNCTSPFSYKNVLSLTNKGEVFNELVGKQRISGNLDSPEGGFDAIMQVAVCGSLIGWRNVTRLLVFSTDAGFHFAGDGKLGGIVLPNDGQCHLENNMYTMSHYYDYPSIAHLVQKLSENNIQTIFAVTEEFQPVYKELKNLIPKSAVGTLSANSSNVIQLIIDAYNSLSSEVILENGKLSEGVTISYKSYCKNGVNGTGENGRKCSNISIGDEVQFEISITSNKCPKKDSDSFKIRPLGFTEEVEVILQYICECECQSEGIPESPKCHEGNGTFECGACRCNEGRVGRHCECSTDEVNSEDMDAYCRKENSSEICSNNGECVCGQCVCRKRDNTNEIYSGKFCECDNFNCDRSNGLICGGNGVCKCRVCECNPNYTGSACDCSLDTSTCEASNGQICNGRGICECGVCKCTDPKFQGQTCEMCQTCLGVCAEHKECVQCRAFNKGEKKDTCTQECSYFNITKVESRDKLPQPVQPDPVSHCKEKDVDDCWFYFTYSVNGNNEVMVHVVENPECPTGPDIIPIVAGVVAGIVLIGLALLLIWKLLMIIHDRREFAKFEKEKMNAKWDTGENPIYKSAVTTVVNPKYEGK

T9 sequence (P08648 42-995, chain 1 of 2): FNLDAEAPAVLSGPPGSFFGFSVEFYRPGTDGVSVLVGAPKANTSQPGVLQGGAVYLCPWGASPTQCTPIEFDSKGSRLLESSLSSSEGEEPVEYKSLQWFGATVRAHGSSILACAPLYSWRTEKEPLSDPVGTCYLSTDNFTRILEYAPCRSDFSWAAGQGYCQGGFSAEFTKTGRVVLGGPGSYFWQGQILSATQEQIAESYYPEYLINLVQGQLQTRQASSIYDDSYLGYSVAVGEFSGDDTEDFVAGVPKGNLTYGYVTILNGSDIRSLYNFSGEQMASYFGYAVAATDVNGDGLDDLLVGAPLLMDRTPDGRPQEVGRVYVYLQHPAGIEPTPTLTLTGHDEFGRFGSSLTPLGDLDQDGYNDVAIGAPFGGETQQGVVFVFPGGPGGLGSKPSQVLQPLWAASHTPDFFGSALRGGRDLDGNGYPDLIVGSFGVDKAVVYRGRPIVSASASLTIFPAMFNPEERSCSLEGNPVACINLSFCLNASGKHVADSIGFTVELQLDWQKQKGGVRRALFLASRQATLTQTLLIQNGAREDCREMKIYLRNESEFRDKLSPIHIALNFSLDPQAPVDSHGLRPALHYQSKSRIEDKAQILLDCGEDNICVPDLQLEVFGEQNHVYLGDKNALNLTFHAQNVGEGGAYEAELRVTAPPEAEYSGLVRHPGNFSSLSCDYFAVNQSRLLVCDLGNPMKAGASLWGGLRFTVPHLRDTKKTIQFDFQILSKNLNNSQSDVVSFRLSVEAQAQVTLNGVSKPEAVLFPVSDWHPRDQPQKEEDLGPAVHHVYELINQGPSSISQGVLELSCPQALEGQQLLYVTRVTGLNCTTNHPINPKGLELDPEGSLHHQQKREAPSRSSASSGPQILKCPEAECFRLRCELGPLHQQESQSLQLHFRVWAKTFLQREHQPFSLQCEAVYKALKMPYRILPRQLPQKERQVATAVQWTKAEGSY
T9 sequence (P05556 21-728, chain 2 of 2): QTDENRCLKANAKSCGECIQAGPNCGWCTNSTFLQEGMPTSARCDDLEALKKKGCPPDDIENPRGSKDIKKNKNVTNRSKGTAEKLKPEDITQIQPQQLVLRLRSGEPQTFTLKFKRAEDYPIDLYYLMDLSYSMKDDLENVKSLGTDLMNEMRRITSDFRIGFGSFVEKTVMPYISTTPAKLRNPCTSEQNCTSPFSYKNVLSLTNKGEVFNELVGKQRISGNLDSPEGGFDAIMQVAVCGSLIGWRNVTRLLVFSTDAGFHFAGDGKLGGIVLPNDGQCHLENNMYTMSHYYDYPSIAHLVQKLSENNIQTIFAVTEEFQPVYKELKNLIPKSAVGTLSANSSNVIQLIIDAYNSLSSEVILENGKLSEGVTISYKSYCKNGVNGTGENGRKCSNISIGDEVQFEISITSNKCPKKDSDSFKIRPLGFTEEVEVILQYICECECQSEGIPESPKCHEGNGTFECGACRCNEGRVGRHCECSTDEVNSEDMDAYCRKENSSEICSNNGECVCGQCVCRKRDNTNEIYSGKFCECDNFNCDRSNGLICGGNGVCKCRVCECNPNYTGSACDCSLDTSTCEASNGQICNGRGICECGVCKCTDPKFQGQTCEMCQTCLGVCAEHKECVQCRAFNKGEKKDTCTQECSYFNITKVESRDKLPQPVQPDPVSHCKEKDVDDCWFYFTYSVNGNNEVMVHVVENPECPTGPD
T7 sequence (P08637 17-208 F176V limits assumed): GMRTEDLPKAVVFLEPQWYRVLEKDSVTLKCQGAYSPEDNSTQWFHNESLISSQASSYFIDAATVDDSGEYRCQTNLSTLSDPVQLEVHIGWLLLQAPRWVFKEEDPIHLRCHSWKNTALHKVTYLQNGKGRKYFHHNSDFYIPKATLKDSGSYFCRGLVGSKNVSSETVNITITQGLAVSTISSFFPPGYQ
T6 sequence (P08637 17-208 limits assumed): as the sequence (P08637 17-208 F176V limits assumed) above, with V160F counted along it
T3 sequence (P12314 16-288 limits assumed): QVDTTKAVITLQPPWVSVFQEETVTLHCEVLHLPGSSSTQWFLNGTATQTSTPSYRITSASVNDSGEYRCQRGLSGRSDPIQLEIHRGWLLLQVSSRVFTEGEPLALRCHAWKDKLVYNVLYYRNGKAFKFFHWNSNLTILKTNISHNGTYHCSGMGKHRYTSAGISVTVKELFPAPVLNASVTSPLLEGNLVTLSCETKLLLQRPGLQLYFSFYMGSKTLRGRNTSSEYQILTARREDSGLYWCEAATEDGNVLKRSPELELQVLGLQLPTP

B1: 22B5/DLE (antibody, human IgG1, kappa)
heavy: QLQLQESGPGLVKPSETLSLTCTVSGGSISSSSYWGWIRQPPGKGLEWIGSIYYSGRNYNNPSLKSRVTISVDTSKNQFSLKLSSVTAADTAVYYCARHYYGSGSSYYYYDLDVWGQGTTVTVSSASTKGPSVFPLAPSSKSTSGGTAALGCLVKDYFPEPVTVSWNSGALTSGVHTFPAVLQSSGLYSLSSVVTVPSSSLGTQTYICNVNHKPSNTKVDKKVEPKSCDKTHTCPPCPAPELLGGPDVFLFPPKPKDTLMISRTPEVTCVVVDVSHEDPEVKFNWYVDGVEVHNAKTKPREEQYNSTYRVVSVLTVLHQDWLNGKEYKCKVSNKALPLPEEKTISKAKGQPREPQVYTLPPSREEMTKNQVSLTCLVKGFYPSDIAVEWESNGQPENNYKTTPPVLDSDGSFFLYSKLTVDKSRWQQGNVFSCSVMHEALHNHYTQKSLSLSPGK
light: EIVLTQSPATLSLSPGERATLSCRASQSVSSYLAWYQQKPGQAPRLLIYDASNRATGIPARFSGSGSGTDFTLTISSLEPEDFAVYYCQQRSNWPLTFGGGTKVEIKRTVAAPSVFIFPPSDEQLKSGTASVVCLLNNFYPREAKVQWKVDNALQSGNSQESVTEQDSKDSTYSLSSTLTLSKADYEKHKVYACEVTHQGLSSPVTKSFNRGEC
notes: Human IgG1 with Fc mutations S247D, A338L, I340E; the VH already holds the germline back-mutations I30S and N33S; also called 22B5 IgG1 DLE; 22B5 G1 DLE
Fold enhancement over wt IgG1 [1]: 5 fold | Fold enhancement over wt IgG1 [2]: 260 fold | Fold enhancement over wt IgG1 [3]: 6 fold | Fold enhancement over wt IgG1 [4]: 1.6 fold | Fold enhancement over wt IgG1 [5]: 2.3 fold | Fold enhancement over wt IgG1 [6]: 122 fold | Fold enhancement over wt IgG1 [7]: 70 fold | Fold enhancement over wt IgG1 [8]: 14 fold | Kd [9]: 2.7 nM | koff [9]: 0.0012 s⁻¹ | kon [9]: 450000 M⁻¹ s⁻¹ | Kd [10]: 4.1 nM | koff [10]: 0.0014 s⁻¹ | kon [10]: 340000 M⁻¹ s⁻¹ | Kd [11]: 2.42 nM
